Positions count from the first letter of the chain named.
How the values were obtained:
Details in all cases: protein: recombinant; tags: C-terminal poly-His (pET21); label: 5' 32P; single strand
PhrB Y460F = molecular target: T1, PhrB Y460F (Agrobacterium fabrum, UniProt A9CH39 1-507, Y460F); assay: EMSA; reduced FAD, darkness; […] (buffer 1: 50 mM Tris-HCl pH 7.0, 1 mM EDTA, 100 mM NaCl, 5% glycerol, 20 mM DTT); or buffer 2: pH 7.5, 10 mM DTT; […]
T1 sequence: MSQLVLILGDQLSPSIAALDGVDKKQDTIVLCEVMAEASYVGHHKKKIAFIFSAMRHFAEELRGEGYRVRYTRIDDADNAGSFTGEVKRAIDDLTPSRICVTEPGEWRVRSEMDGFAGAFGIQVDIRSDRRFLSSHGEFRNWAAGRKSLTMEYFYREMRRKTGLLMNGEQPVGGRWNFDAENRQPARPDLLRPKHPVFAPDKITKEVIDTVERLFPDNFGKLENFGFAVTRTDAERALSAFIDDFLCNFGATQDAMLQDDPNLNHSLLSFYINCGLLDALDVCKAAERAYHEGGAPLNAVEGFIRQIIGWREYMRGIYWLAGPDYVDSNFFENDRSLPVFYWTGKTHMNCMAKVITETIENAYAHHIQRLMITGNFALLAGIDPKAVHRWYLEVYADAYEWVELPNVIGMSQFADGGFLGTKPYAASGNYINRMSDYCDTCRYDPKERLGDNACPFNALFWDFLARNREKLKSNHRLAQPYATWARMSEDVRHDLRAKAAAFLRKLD

PhrB Y430F = molecular target: T2, PhrB Y430F (Agrobacterium fabrum, UniProt A9CH39 1-507, Y430F); assay: as above
T2 sequence: T1 sequence with Y430F, F460Y

PhrB Y424F = molecular target: T3, PhrB Y424F (Agrobacterium fabrum, UniProt A9CH39 1-507, Y424F); assay: as above
T3 sequence: T1 sequence with Y424F, F460Y

PhrB = molecular target: T4, PhrB (Agrobacterium fabrum, UniProt A9CH39 1-507); assay: EMSA; reduced FAD, darkness; EMSA in repair buffer (buffer 1: 50 mM Tris-HCl pH 7.0, 1 mM EDTA, 100 mM NaCl, 5% glycerol, 20 mM DTT; or buffer 2: pH 7.5, 10 mM DTT; which one not stated), 28 nM DNA, 10% TBE-PAGE at 4 C in darkness
T4 sequence: T1 sequence with F460Y

Row | Binder | Kd (PhrB Y460F) | Kd (PhrB Y430F) | Kd (PhrB Y424F) | Kd (PhrB)
1 | CATAGGTTGGCATA (ssDNA) [EMSA_1 undamaged] | 25 ± 3 µM | 27 ± 2 µM | 28 ± 3 µM | 25 ± 3 µM
2 | CATAGGTTGGCATA (ssDNA, (6-4) photoproduct at T7-T8 (the only TT; 254 nm UV, HPLC purified)) [EMSA_1 (6-4)TT photoproduct] | 0.025 ± 0.003 µM | 0.027 ± 0.003 µM | 18 ± 2 µM | 0.013 ± 0.002 µM

From article PMC4619345, “Key Amino Acids in the Bacterial (6-4) Photolyase PhrB from Agrobacterium fabrum”
